Variants at the floor of the assay were thinned out.
Experiments:
biotinyl-Val-oxazolone = experiment: self-aminoacylation, catalytic enhancement (BVO) (fold over background); higher = more active; k-Seq, kA / k0A0; sequences stand for … in GGGAAUGGAUCCACAUCUACGAAUUC…UUCACUGCAGACUUGACGAAGCUG
In short: (§1)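 The uncatalyzed rate is the low-activity peak of a bimodal Gaussian fit, and catalytic enhancement is median kA divided by it. The kA values came from pseudo-first-order fits, with 1000 bootstraps, of per-sequence fraction reacted measured by streptavidin capture, triplicate qPCR and Illumina sequencing. Mutagenized RNA pools with a 21-nt variable region (0.43 μM) were reacted with each biotinyl-aminoacyl-oxazolone at 2–1250 μM in 50 μL HEPES/NaCl/KCl/MgCl2/CaCl2 buffer with 5% acetonitrile, pH 6.9–7.0, for 90 minutes at room temperature.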

biotinyl-Trp-oxazolone = experiment: self-aminoacylation, catalytic enhancement (BWO) (fold over background); higher = more active; k-Seq, kA / k0A0; sequences stand for … in GGGAAUGGAUCCACAUCUACGAAUUC…UUCACUGCAGACUUGACGAAGCUG
In short: as §1

biotinyl-Leu-oxazolone = experiment: self-aminoacylation, catalytic enhancement (BLO) (fold over background); higher = more active; k-Seq, kA / k0A0; sequences stand for … in GGGAAUGGAUCCACAUCUACGAAUUC…UUCACUGCAGACUUGACGAAGCUG
In short: as §1

biotinyl-Met-oxazolone = experiment: self-aminoacylation, catalytic enhancement (BMO) (fold over background); higher = more active; k-Seq, kA / k0A0; sequences stand for … in GGGAAUGGAUCCACAUCUACGAAUUC…UUCACUGCAGACUUGACGAAGCUG
In short: as §1

biotinyl-Phe-oxazolone = experiment: self-aminoacylation, catalytic enhancement (BFO) (fold over background); higher = more active; k-Seq, kA / k0A0; sequences stand for … in GGGAAUGGAUCCACAUCUACGAAUUC…UUCACUGCAGACUUGACGAAGCUG
In short: as §1

biotinyl-Ile-oxazolone = experiment: self-aminoacylation, catalytic enhancement (BIO) (fold over background); higher = more active; k-Seq, kA / k0A0; sequences stand for … in GGGAAUGGAUCCACAUCUACGAAUUC…UUCACUGCAGACUUGACGAAGCUG
In short: as §1

Row | Sequence | self-aminoacylation (biotinyl-Val-oxazolone) | self-aminoacylation (biotinyl-Trp-oxazolone) | self-aminoacylation (biotinyl-Leu-oxazolone) | self-aminoacylation (biotinyl-Met-oxazolone) | self-aminoacylation (biotinyl-Phe-oxazolone) | self-aminoacylation (biotinyl-Ile-oxazolone)
1 | AUUCACCUUGGUUAUCGGGUG [Fam2.2 aminoacylation ribozyme variant] | 3.85 | 5.27 | 5.92 | 5.13 | 35.2 | 3.26
2 | AUUCACCUUGUUCAUCGGGUG [Fam2.2 aminoacylation ribozyme variant] | 2.42 | 2.91 | 3.38 | 2.72 | 15.2 | 2.01
3 | AUUCACCUUUGUCAUCGGGUG [Fam2.2 aminoacylation ribozyme variant] | 3.11 | 4.62 | 5.41 | 4.43 | 25.4 | 3.14
4 | AUUCACGUAGGCCAUCGGGUG [Fam2.2 aminoacylation ribozyme variant] | 5.3 | 5.37 | 4.12 | 4.29 | 48.1 | 3.71
5 | AUUCACGUAGGUCAACGGGUG [Fam2.2 aminoacylation ribozyme variant] | 3.15 | 4.47 | 4.96 | 3.95 | 21.1 | 2.77
6 | AUUCACGUAGGUCAUCCGGUG [Fam2.2 aminoacylation ribozyme variant] | 8.57 | 12.1 | 17 | 13.2 | 120 | 7.72
7 | AUUCACGUAGGUCAUCGGCUG [Fam2.2 aminoacylation ribozyme variant] | 3.36 | 3.17 | 2.91 | 2.35 | 6.6 | 2.35
8 | AUUCACGUAGGUCAUGGGGUG [Fam2.2 aminoacylation ribozyme variant] | 4.23 | 4.5 | 5.48 | 3.45 | 24.6 | 3.34
9 | AUUCACGUAGGUCUUCGGGUG [Fam2.2 aminoacylation ribozyme variant] | 5.24 | 4.88 | 4.82 | 4.21 | 40.1 | 3.86
10 | AUUCACUUACGUCAUCGGGUG [Fam2.2 aminoacylation ribozyme variant] | 3.36 | 5.63 | 7.03 | 5.61 | 38.4 | 3.35
11 | AUUCACUUAGGACAUCGGGUG [Fam2.2 aminoacylation ribozyme variant] | 2.33 | 2.78 | 3.44 | 3.21 | 14.1 | 2.33
12 | AUUCACUUAGGUCAUCGGGAG [Fam2.2 aminoacylation ribozyme variant] | 1.11 | 0.745 | 1.22 | 1.1 | 0.746 | 1.02
13 | AUUCACUUAGGUCAUCGGGCG [Fam2.2 aminoacylation ribozyme variant] | 3.17 | 3.91 | 4.02 | 3.18 | 4.38 | 2.55
14 | AUUCACUUAGGUCAUCGGGUG [Fam2.2 aminoacylation ribozyme variant] | 3.86 | 6.28 | 8.1 | 6.36 | 48.3 | 3.87
15 | AUUCACUUAGGUCUUCGGGUG [Fam2.2 aminoacylation ribozyme variant] | 2.71 | 4.2 | 3.95 | 3.58 | 22.7 | 2.96
16 | AUUCACUUAGGUUAUCGGGUG [Fam2.2 aminoacylation ribozyme variant] | 2.5 | 3.68 | 4.03 | 3.33 | 18.6 | 2.37
17 | AUUCAGCCAGGUCAUCGGGUG [Fam2.2 aminoacylation ribozyme variant] | 5.4 | 9.91 | 10.7 | 8.99 | 59.7 | 5.25
18 | AUUCAGCUAAGUCAUCGGGUG [Fam2.2 aminoacylation ribozyme variant] | 2.96 | 2.81 | 3.99 | 3 | 24.6 | 2.96
19 | AUUCAGCUAGGGCAUCGGGUG [Fam2.2 aminoacylation ribozyme variant] | 4.65 | 6.75 | 7.92 | 6.69 | 64.3 | 4.72
20 | AUUCAGCUAGGUCAUCAGGUG [Fam2.2 aminoacylation ribozyme variant] | 2.04 | 2.09 | 2.39 | 2.38 | 8.1 | 1.63
21 | AUUCAGCUAGGUCAUCGGGUG [Fam2.2 aminoacylation ribozyme variant] | 4.2 | 5.34 | 5.83 | 4.92 | 35 | 3.7
22 | AUUCAGCUAGGUCAUGGGGUG [Fam2.2 aminoacylation ribozyme variant] | 2.98 | 3.72 | 2.94 | 3.03 | 17.8 | 2.74
23 | AUUCAGCUAGGUCCUCGGGUG [Fam2.2 aminoacylation ribozyme variant] | 4.46 | 6.56 | 9.02 | 6.2 | 55.4 | 4.67
24 | AUUCAGCUAGGUUAUCGGGUG [Fam2.2 aminoacylation ribozyme variant] | 5.16 | 8.86 | 9.36 | 7.59 | 60.4 | 5.01
25 | AUUCAGCUAGUUCAUCGGGUG [Fam2.2 aminoacylation ribozyme variant] | 4.95 | 7.26 | 9.16 | 7.01 | 52.3 | 5.34
26 | AUUCAGGUAGGUCAUCGGGUG [Fam2.2 aminoacylation ribozyme variant] | 4.23 | 5.12 | 5.83 | 4.59 | 30.7 | 3.68

Row | Sequence | self-aminoacylation (biotinyl-Val-oxazolone) | self-aminoacylation (biotinyl-Trp-oxazolone) | self-aminoacylation (biotinyl-Leu-oxazolone) | self-aminoacylation (biotinyl-Met-oxazolone) | self-aminoacylation (biotinyl-Phe-oxazolone) | self-aminoacylation (biotinyl-Ile-oxazolone)
27 | AUUCAUAUAGGUCAUCGGGUG [Fam2.2 aminoacylation ribozyme variant] | 3.28 | 5.78 | 6.04 | 4.9 | 34.2 | 3.42
28 | AUUCAUCCAGGUCAUCGGGUG [Fam2.2 aminoacylation ribozyme variant] | 4.75 | 6.96 | 9.76 | 7.87 | 47.8 | 4.96
29 | AUUCAUCUAGGUCAACGGGUG [Fam2.2 aminoacylation ribozyme variant] | 2.61 | 3.23 | 5.32 | 4.08 | 29.6 | 2.6
30 | AUUCAUCUAGGUCAUCGUGUG [Fam2.2 aminoacylation ribozyme variant] | 0.915 | 0.882 | 1.23 | 1.16 | 4.8 | 1.05
31 | AUUCAUCUAGGUCAUUGGGUG [Fam2.2 aminoacylation ribozyme variant] | 2.77 | 4.24 | 4.98 | 4.21 | 26.7 | 2.67
32 | AUUCAUCUAGGUUAUCGGGUG [Fam2.2 aminoacylation ribozyme variant] | 2.44 | 3.36 | 3.86 | 3.02 | 28.8 | 2.37
33 | AUUCAUCUGGGUCAUCGGGUG [Fam2.2 aminoacylation ribozyme variant] | 4.92 | 7.66 | 10.3 | 7.57 | 53.2 | 5.22
34 | AUUCAUCUUGGUCAUCGGGUG [Fam2.2 aminoacylation ribozyme variant] | 4.56 | 7.39 | 9.58 | 7.46 | 50.1 | 4.97
35 | AUUCAUGUAGGUCAUCGGGUG [Fam2.2 aminoacylation ribozyme variant] | 3.43 | 5.09 | 6.54 | 5.45 | 33.9 | 3
36 | AUUCCCAUAGGUCAUCGGGUG [Fam2.2 aminoacylation ribozyme variant] | 13.4 | 22 | 32.7 | 23.9 | 185 | 15.6
37 | AUUCCCCUAAGUCAUCGGGUG [Fam2.2 aminoacylation ribozyme variant] | 37.9 | 62.2 | 85.8 | 59.1 | 498 | 38.6
38 | AUUCCCCUACGUCAUCGGGUG [Fam2.2 aminoacylation ribozyme variant] | 11 | 16 | 20.9 | 16 | 127 | 10.9
39 | AUUCCCCUAGGUAAUCGGGUG [Fam2.2 aminoacylation ribozyme variant] | 6.58 | 11.6 | 16.3 | 10.7 | 90.8 | 7.5
40 | AUUCCCCUAGGUCAUCGAGUG [Fam2.2 aminoacylation ribozyme variant] | 7.52 | 12.6 | 15 | 11 | 66.1 | 7.79
41 | AUUCCCCUAGGUCAUCGGCUG [Fam2.2 aminoacylation ribozyme variant] | 7.07 | 6.44 | 7.58 | 6.91 | 30.9 | 8.03
42 | AUUCCCCUAGGUCAUCGGGUU [Fam2.2 aminoacylation ribozyme variant] | 6.74 | 7.29 | 8.02 | 5.77 | 36.7 | 6.34
43 | AUUCCCCUAGGUCAUCGGUUG [Fam2.2 aminoacylation ribozyme variant] | 3.38 | 2.16 | 3.94 | 3.19 | 11.7 | 3.4
44 | AUUCCCCUAGGUCAUCGUGUG [Fam2.2 aminoacylation ribozyme variant] | 4.25 | 4.05 | 4.37 | 3.02 | 20.7 | 3.28
45 | AUUCCCCUAGGUUAUCGGGUG [Fam2.2 aminoacylation ribozyme variant] | 13.3 | 20 | 27.6 | 20 | 187 | 12.9
46 | AUUCCCCUAGUCAUCGAGUGA [Fam2.1 aminoacylation ribozyme variant] | 7.18 | 15.3 | 11.6 | 11.5 | 66.1 | 6.5
47 | AUUCCCCUAGUUCAUCGGGUG [Fam2.2 aminoacylation ribozyme variant] | 6.85 | 10.2 | 10.1 | 7.78 | 56.5 | 6.72
48 | AUUCCCCUCGGUCAUCGGGUG [Fam2.2 aminoacylation ribozyme variant] | 14 | 22.6 | 30.8 | 21.1 | 211 | 14.8
49 | AUUCCCCUGGACAUCGAGUGA [Fam2.1 aminoacylation ribozyme variant] | 3.45 | 7.13 | 6.77 | 6 | 35.4 | 3.41
50 | AUUCCCCUGGUCAUCGAGAGA [Fam2.1 aminoacylation ribozyme variant] | 1.47 | 1.96 | 1.17 | 1.68 | 3.27 | 1.46
51 | AUUCCCCUGGUCAUCGAGUAA [Fam2.1 aminoacylation ribozyme variant] | 1.7 | 1.47 | 1.35 | 1.69 | 1.42 | 1.55

Source: the supplement of paper PMC9233669
